Assay results: article PMC11446282

T1: B55α (Homo sapiens, UniProt P63151)
T1 construct: His; made in house; host or cells: HEK293 cells
T1 sequence (P63151 1-447): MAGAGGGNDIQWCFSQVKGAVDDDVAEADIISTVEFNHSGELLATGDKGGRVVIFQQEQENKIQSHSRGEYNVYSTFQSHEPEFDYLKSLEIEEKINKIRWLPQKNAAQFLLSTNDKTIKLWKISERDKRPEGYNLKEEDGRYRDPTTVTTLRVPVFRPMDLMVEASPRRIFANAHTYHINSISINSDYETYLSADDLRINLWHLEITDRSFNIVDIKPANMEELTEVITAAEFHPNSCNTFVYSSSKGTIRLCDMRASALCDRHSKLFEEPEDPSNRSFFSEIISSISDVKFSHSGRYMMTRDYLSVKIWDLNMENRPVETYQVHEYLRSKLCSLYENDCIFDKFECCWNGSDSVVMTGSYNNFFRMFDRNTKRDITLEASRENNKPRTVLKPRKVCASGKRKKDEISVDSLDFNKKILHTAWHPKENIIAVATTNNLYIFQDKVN


Target: T1, B55α
Assay: Surface plasmon resonance with captured Twin-Strep B55α
Format: binding
Conditions: same SPR approach as for B55i; fig. S15

Molecule	binding to B55α, affinity range
PME1: full-length PME1 protein expressed in BL21(DE3) (protein) MSALEKSMHLGRLPSRPPLPGSGGSQSGAKMRMGPGRKRDFSPVPWSQYFESMEDVEVENETGKDTFRVYKSGSEGPVLLLLHGGGHSALSWAVFTAAIISRVQCRIVALDLRSHGETKVKNPEDLSAETMAKDVGNVVEAMYGDLPPPIMLIGHSMGGAIAVHTASSNLVPSLLGLCMIDVVEGTAMDALNSMQNFLRGRPKTFKSLENAIEWSVKSGQIRNLESARVSMVGQVKQCEGITSPEGSKSIVEGIIEEEEEDEEGSESISKRKKEDDMETKKDHPYTWRIELAKTEKYWDGWFRGLSNLFLSCPIPKLLLLAGVDRLDKDLTIGQMQGKFQMQVLPQCGHAVHEDAPDKVAEAVATFLIRHRFAEPIGGFQCVFPGC	low micromolar
Arpp19: full-length Arpp19 protein (S62E in the SPR method) (protein, UniProt P56211 1-112, looked up, variant S62E, full-length) MSAEVPEAASAEEQKEMEDKVTSPEKAEEAKLKARYPHLGQKPGGSDFLRKRLQKGQKYFDEGDYNMAKAKMKNKQLPTAAPDKTEVTGDHIPTPQDLPQRKPSLVASKLAG	low micromolar
